From article PMC4809600, “The Influence of Chronic Wound Extracts on Inflammatory Cytokine and Histatin Stability” (PLoS ONE, 2016)

Key:
[1] = Stability in chronic wound extracts (CWE), capillary zone electrophoresis; format: in vitro ADME, human; details: 37°C, CZE, 0 h = 100%; for Percentage intact, CWE 24h / Percentage intact, CWE 48h / Percentage intact, CWE 72h / Percentage intact, CWE 96h: 1 mg/ml in PBS mixed 1:1 with CWE (1 mg/ml protein, pool of 5 donors) in PBS, UV 200 nm, ratio to imidazole; for Starting material remaining intact after 96 h in CWE: 1 mg/ml in PBS mixed 1:1 with CWE (1 mg/ml protein, pools of 5 donors), mean of 3 independent experiments
Summary of the method: (§1)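 Peptides or cytokines (1 mg/ml stock) mixed 1:1 with PBS or pooled chronic-wound extract (1 mg/ml protein, three pools of five donors), ±protease inhibitor cocktail, at 37 °C for up to 96 h. Analyzed by capillary zone electrophoresis (pH 2.5 phosphate, 200 nm), with peak ratio to imidazole standard relative to 0 h as % intact.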

[2] = Stability in PBS, capillary zone electrophoresis; format: physicochemical; details: 1 mg/ml in PBS mixed 1:1 with PBS, 37°C, 96 h, CZE, UV 200 nm, ratio to imidazole internal standard, 0 h = 100%
Experimental: To determine the stability of the different peptides in CWE, histatins and cytokines were dissolved in PBS at 1 mg/ml. Histatins and cytokines were incubated in a 1:1 ratio with (i) PBS, (ii) CWE in PBS, or (iii) CWE in PBS containing PIC, in a total volume of 25 μl. Imidazole (Sigma-Aldrich) was added as an internal standard, with a final concentration of 100 μg/ml. The mixtures were incubated at 37°C, and samples were taken at 0, 24, 48, 72 and 96 h. For histatins containing mixtures, additional samples were taken after 2, 4, 8 and 16 h of incubation.
The samples were analyzed with a BioFocus 2000 capillary zone electrophoresis system (Bio-Rad Laboratories, Hercules, CA, USA) equipped with an uncoated fused-silica capillary of internal diameter 50 μm and a length of 24 cm. Samples were loaded by pressure injection (5 psi/sec). Separation was performed at 10 kV (cathode at the detector side) at 20°C using 0.1 M phosphate buffer (pH 2.5) as electrolyte and monitored continuously at 200 nm. Peaks were quantified with the BioFocus Integrator software. In order to quantify the percentage of intact peptides remaining after incubation with CWE, the ratios of histatins, rhIL-6 or rhCXCL8 to internal standard was set at 100% at 0h, and the ratios at the other incubation time points were related to this.

[3] = Stability in CWE with protease inhibitor cocktail (PIC), capillary zone electrophoresis; format: in vitro ADME, human; details: 1 mg/ml in PBS mixed 1:1 with CWE (1 mg/ml protein, pool of 5 donors) in PBS containing PIC (final 1:140 v/v), 37°C, CZE, ratio to imidazole, 0 h = 100%
Summary of the method: as §1

Substance	Percentage intact, CWE 24h ([1]; experiment 1 of 3) [%]	Percentage intact, CWE 24h ([1]; experiment 2 of 3) [%]	Percentage intact, CWE 24h ([1]; experiment 3 of 3) [%]	Percentage intact, CWE 48h ([1]; experiment 1 of 3) [%]	Percentage intact, CWE 48h ([1]; experiment 2 of 3) [%]	Percentage intact, CWE 48h ([1]; experiment 3 of 3) [%]	Percentage intact, CWE 72h ([1]; experiment 1 of 3) [%]	Percentage intact, CWE 72h ([1]; experiment 2 of 3) [%]	Percentage intact, CWE 72h ([1]; experiment 3 of 3) [%]	Percentage intact, CWE 96h ([1]; experiment 1 of 3) [%]	Percentage intact, CWE 96h ([1]; experiment 2 of 3) [%]	Percentage intact, CWE 96h ([1]; experiment 3 of 3) [%]	Starting material remaining intact after 96 h in CWE [1] [%]	Percentage intact, PBS 96h ([2]; experiment 1 of 3) [%]	Percentage intact, PBS 96h ([2]; experiment 2 of 3) [%]	Percentage intact, PBS 96h ([2]; experiment 3 of 3) [%]	Percentage intact, CWE + PIC 24h ([3]; experiment 1 of 3) [%]	Percentage intact, CWE + PIC 24h ([3]; experiment 2 of 3) [%]	Percentage intact, CWE + PIC 24h ([3]; experiment 3 of 3) [%]	Percentage intact, CWE + PIC 48h ([3]; experiment 1 of 3) [%]	other results
IL-6 CS: rhIL-6 from Cell Systems Biotechnology, Cat nr. CS-C1066	87.5606	96.7909	93.0609	82.5586	90.261	82.6368	76.7459	64.558	69.7531	67.9184	56.1934	44.5849	56	91.7071	94.938	88.4799	96.0006	88.559	95.4415	84.6802	Percentage intact, CWE + PIC 48h ([3]; experiment 2 of 3): 88.7813%; Percentage intact, CWE + PIC 48h ([3]; experiment 3 of 3): 87.103%; Percentage intact, CWE + PIC 72h ([3]; experiment 1 of 3): 88.9677%; Percentage intact, CWE + PIC 72h ([3]; experiment 2 of 3): 86.585%; Percentage intact, CWE + PIC 72h ([3]; experiment 3 of 3): 83.9413%; Percentage intact, CWE + PIC 96h ([3]; experiment 1 of 3): 78.2271%; Percentage intact, CWE + PIC 96h ([3]; experiment 2 of 3): 83.1651%; Percentage intact, CWE + PIC 96h ([3]; experiment 3 of 3): 79.7008%
IL-6 BioV: rhIL-6 from Biovision Inc, Cat nr. 4143	86.2456	92.3596	87.2422	74.2431	71.0486	85.9071	64.7766	67.0796	78.8792	48.2486	62.2324	63.6069	58	98.6817	79.9235	96.6267	100.779	107.202	97.2326	100.572	Percentage intact, CWE + PIC 48h ([3]; experiment 2 of 3): 97.0586%; Percentage intact, CWE + PIC 48h ([3]; experiment 3 of 3): 95.2476%; Percentage intact, CWE + PIC 72h ([3]; experiment 1 of 3): 93.9962%; Percentage intact, CWE + PIC 72h ([3]; experiment 2 of 3): 96.7281%; Percentage intact, CWE + PIC 72h ([3]; experiment 3 of 3): 94.831%; Percentage intact, CWE + PIC 96h ([3]; experiment 1 of 3): 90.2939%; Percentage intact, CWE + PIC 96h ([3]; experiment 2 of 3): 94.0745%; Percentage intact, CWE + PIC 96h ([3]; experiment 3 of 3): 94.3747%
